Measured values: paper PMC12208539, “PPIL2 is a target of the JAK2/STAT5 pathway and promotes myeloproliferation via degradation of p53” (The Journal of Clinical Investigation, 2025)

Molecular target: T1, recombinant His-p53 (UniProt P04637 1-393)
T1 construct: p53 from pET15b-p53 (Addgene plasmid 24859); also called pET15b-p53; source: recombinant, pET15b-p53 (Addgene)
Experiment: pull-down; GST pulldown: 100 μg recombinant GST-PPIL2 protein with 100 μg recombinant His-p53 and MagneGST glutathione beads overnight at 4°C; washes with TENT buffer (1% Triton X-100, 140 mM NaCl, 2 mM EDTA, 20 mM Tris pH 8.0)
Conditions: both partners purified

T1 sequence (P04637 whole entry): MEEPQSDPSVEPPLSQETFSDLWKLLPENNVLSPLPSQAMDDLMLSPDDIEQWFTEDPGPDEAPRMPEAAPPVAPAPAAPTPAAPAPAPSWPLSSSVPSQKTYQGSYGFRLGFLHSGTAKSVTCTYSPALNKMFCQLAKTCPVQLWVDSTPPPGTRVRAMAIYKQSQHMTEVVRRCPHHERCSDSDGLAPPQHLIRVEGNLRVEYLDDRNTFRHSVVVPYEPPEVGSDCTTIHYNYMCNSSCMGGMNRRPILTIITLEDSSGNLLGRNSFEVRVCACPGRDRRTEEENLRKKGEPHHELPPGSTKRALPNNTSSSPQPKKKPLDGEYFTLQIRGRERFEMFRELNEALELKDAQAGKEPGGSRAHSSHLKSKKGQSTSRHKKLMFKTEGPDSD

- binding result: binds
B1: recombinant GST-PPIL2-U-box (domain or fragment, UniProt Q13356 1-190, looked up)
chain: MGKRQHQKDKMYITCAEYTHFYGGKKPDLPQTNFRRLPFDHCSLSLQPFVYPVCTPDGIVFDLLNIVPWLKKYGTNPSNGEKLDGRSLIKLNFSKNSEGKYHCPVLFTVFTNNTHIVAVRTTGNVYAYEAVEQLNIKAKNFRDLLTDEPFSRQDIITLQDPTNLDKFNVSNFYHVKNNMKIIDPDEEKAK
notes: peptidylprolyl isomerase-like 2 (PPIL2), U-box domain construct, residues 1-190; the tie of 1-190 to the U-box goes by the order of the list; also called GST-PPIL2 (1-190); U-box domain of PPIL2; source: recombinant, prokaryotic expression vector pGEX6p-3
